# Laboratory results published in IntAct's records for PubMed 9343432.
# B1: Polyhomeotic-proximal chromatin protein (Drosophila melanogaster (Fruit fly)), P39769 (parent)
# chain: MDRRALKFMQKRADTESDTTTPVSTTASQGISASAILAGGTLPLKDNSNIREKPLHHNYNHNNNNSSQHSHSHQQQQQQQVGGKQLERPLKCLETLAQKAGITFDEKYDVASPPHPGIAQQQATSGTGPATGSGSVTPTSHRHGTPPTGRRQTHTPSTPNRPSAPSTPNTNCNSIARHTSLTLEKAQNPGQQVAATTTVPLQISPEQLQQFYASNPYAIQVKQEFPTHTTSGSGTELKHATNIMEVQQQLQLQQQLSEANGGGAASAGAGGAASPANSQQSQQQQHSTAISTMSPMQLAAATGGVGGDWTQGRTVQLMQPSTSFLYPQMIVSGNLLHPGGLGQQPIQVITAGKPFQGNGPQMLTTTTQNAKQMIGGQAGFAGGNYATCIPTNHNQSPQTVLFSPMNVISPQQQQNLLQSMAAAAQQQQLTQQQQQFNQQQQQQLTQQQQQLTAALAKVGVDAQGKLAQKVVQKVTTTSSAVQAATGPGSTGSTQTQQVQQVQQQQQQTTQTTQQCVQVSQSTLPVGVGGQSVQTAQLLNAGQAQQMQIPWFLQNAAGLQPFGPNQIILRNQPDGTQGMFIQQQPATQTLQTQQNQIIQCNVTQTPTKARTQLDALAPKQQQQQQQVGTTNQTQQQQLAVATAQLQQQQQQLTAAALQRPGAPVMPHNGTQVRPASSVSTQTAQNQSLLKAKMRNKQQPVRPALATLKTEIGQVAGQNKVVGHLTTVQQQQQATNLQQVVNAAGNKMVVMSTTGTPITLQNGQTLHAATAAGVDKQQQQLQLFQKQQILQQQQMLQQQIAAIQMQQQQAAVQAQQQQQQQVSQQQQVNAQQQQAVAQQQQAVAQAQQQQREQQQQVAQAQAQHQQALANATQQILQVAPNQFITSHQQQQQQQLHNQLIQQQLQQQAQAQVQAQVQAQAQQQQQQREQQQNIIQQIVVQQSGATSQQTSQQQQHHQSGQLQLSSVPFSVSSSTTPAGIATSSALQAALSASGAIFQTAKPGTCSSSSPTSSVVTITNQSSTPLVTSSTVASIQQAQTQSAQVHQHQQLISATIAGGTQQQPQGPPSLTPTTNPILAMTSMMNATVGHLSTAPPVTVSVTSTAVTSSPGQLVLLSTASSGGGGSIPATPTKETPSKGPTATLVPIGSPKTPVSGKDTCTTPKSSTPATVSASVEASSSTGEALSNGDASDRSSTPSKGATTPTSKQSNAAVQPPSSTTPNSVSGKEEPKLATCGSLTSATSTSTTTTITNGIGVARTTASTAVSTASTTTTSSGTFITSCTSTTTTTTSSISNGSKDLPKAMIKPNVLTHVIDGFIIQEANEPFPVTRQRYADKDVSDEPPKKKATMQEDIKLSGIASAPGSDMVACEQCGKMEHKAKLKRKRYCSPGCSRQAKNGIGGVGSGETNGLGTGGIVGVDAMALVDRLDEAMAEEKMQTEATPKLSESFPILGASTEVPPMSLPVQAAISAPSPLAMPLGSPLSVALPTLAPLSVVTSGAAPKSSEVNGTDRPPISSWSVDDVSNFIRELPGCQDYVDDFIQQEIDGQALLLLKEKHLVNAMGMKLGPALKIVAKVESIKEVPPPGEAKDPGAQ
# B2: Polycomb protein Scm (Drosophila melanogaster (Fruit fly)), Q9VHA0 (parent)
# chain: MSGGRDSSTSSGSNSAAPGASTNATSSASASASSTSTSASPGSTTSPASTQRQRGRPAKRATCTWCGEGKLPLQYVLPTQTGKKEFCSETCIAEFRKAYSKGACTQCDNVIRDGAPNKEFCSIMCMNKHQKKNCSTRHSGGSASGKGLAESERKLLASGAPAPTGPFQYESFHVFDWDAYLEETGSEAAPAKCFKQAQNPPNNDFKIGMKLEALDPRNVTSTCIATVVGVLGSRLRLRLDGSDSQNDFWRLVDSTEIHAIGHCEKNGGMLQPPLGFRMNASSWPGYLCKILNNAMVAPEEIFQPEPPEPEENLFKVGQKLEAVDKKNPQLICCATVDAIKDDQIHVTFDGWRGAFDYWCNYRSRDIFPAGWCARSCHPMQPPGHKSRMDSSSSKQRCPRPRYTVVAESEAMVPASPATAHFHPNCKGGPFINNSKLPCMVTGPTYQTLAKLCLQEVLAASTDTQQLSKLLFALEGDVHIVTAAGKNFTVKIPSPMRMKDDESLAQFIETLCTTCRACANLISLVHETEECKKCANSRKRQLTQSATPPSSPVLADKRNRQSNSATTSPSEKIIKQELAVKSPVESKSKTSTNNGKEPASQQNSNHSLNNNNNSASKSSNKVVIKSEPNGANAQTSSTTQALRKVRFQHHANTNTNSSATNGNQDTSQTTHVSTSHCSSSSTSSSTSLAGGSANTSTIGKYLAPLVAEVHPEQANVKPSNSYYKSPTTLSSSASLPTSVSTPFTGCQSASSTALAAGGVTAAKAATAPAGAAATAGASPSYTAITSPVSTPTSALANSHLRSQPIDWTIEEVIQYIESNDNSLAVHGDLFRKHEIDGKALLLLNSEMMMKYMGLKLGPALKICNLVNKVNGRRNNLAL
# Variants of: B1
# Settings: with scm_drome Scm, Q9VHA0
row,Variant,effect of a mutation on the interaction
1,G1562A,decreasing interaction
2,W1513A,decreasing interaction

# Variants of: B2
# Settings: with php_drome ph-p, P39769
row,Variant,effect of a mutation on the interaction
1,G836S,decreasing interaction
